{"source": "patent US20170291942A1", "target": "IL-6 protein (human) (UniProt P05231)", "sequence (P05231 30-212 limits assumed)": "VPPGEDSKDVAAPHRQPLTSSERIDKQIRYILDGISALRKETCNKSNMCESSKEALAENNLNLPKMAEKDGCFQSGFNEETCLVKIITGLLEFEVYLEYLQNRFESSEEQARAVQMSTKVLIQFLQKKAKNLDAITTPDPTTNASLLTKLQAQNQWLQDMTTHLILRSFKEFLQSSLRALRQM", "assay": "Luminex based assay, biotin-IL-6 binding to solid phase sIL-6R/gp80", "data": [{"substance": "CLB.IL-6/16 (antibody)", "values": [{"measurement": "percent inhibition of bound biotin-IL-6", "result": 62, "unit": "%"}]}]}
